How the values were obtained:
[1] = test system: HeLa Kyoto; experiment: thermal stability score vs G1/S (z-score of summed log2 fold changes over temperatures); higher = more thermally stable than in G1/S
[2] = test system: HeLa Kyoto; experiment: solubility change mitosis vs G1/S (difference of NP-40 vs SDS log2 ratios) (log2 ratio difference); higher = more soluble in mitosis
[3] = test system: HeLa Kyoto; experiment: solubility in G1/S (NP-40 vs SDS abundance) (log2 ratio); higher = more soluble; conditions: cell cycle stage: G1/S
[4] = test system: HeLa Kyoto; experiment: melting temperature (median over replicates), in situ; higher = more thermally stable
[5] = cell cycle stage: early G1 (4.5 h after nocodazole release)
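Wherever melting temperature (median over replicates), in situ is given: HeLa Kyoto cells synchronized by double thymidine or nocodazole block, proteins quantified by TMT10plex mass spectrometry, three independent biological replicates.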
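Wherever solubility change mitosis vs G1/S (difference of NP-40 vs SDS log2 ratios) is given: synchronized HeLa Kyoto cells (double thymidine block for G1/S, nocodazole release for mitosis), protein amounts in NP-40 versus SDS lysates quantified by mass spectrometry, three biological replicates.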
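Wherever solubility in G1/S (NP-40 vs SDS abundance) is given: HeLa Kyoto cells arrested at G1/S by double thymidine block, proteins quantified by TMT10plex mass spectrometry in mild NP-40 versus SDS extracts, three biological replicates.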
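Wherever thermal stability score vs G1/S (z-score of summed log2 fold changes over temperatures) is given: synchronized HeLa Kyoto cells, proteins quantified by TMT10plex mass spectrometry, three biological replicates, mitosis taken 0.5 h after nocodazole release, G1/S directly after double thymidine block.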

Sequence	thermal stability score [1, 5]	thermal stability score ([1]; cell cycle stage: mitosis)	solubility change mitosis (log2) [2]	solubility in G1/S (log2) [3]	melting temperature ([4]; cell cycle stage: G1/S) [°C]	melting temperature ([4]; cell cycle stage: mitosis) [°C]
MQNSHMDEYRNSSNGSTGNSSEVVVEHPTDFSTEIMNVTEMEQSPDDSPNVNASTEETEMASAVDLPVTLTETEANFPPEYEKFWKTVENNPQDFTGWVYLLQYVEQENHLMAARKAFDRFFIHYPYCYGYWKKYADLEKRHDNIKPSDEVYRRGLQAIPLSVDLWIHYINFLKETLDPGDPETNNTIRGTFEHAVLAAGTDFRSDRLWEMYINWENEQGNLREVTAIYDRILGIPTQLYSHHFQRFKEHVQNNLPRDLLTGEQFIQLRRELASVNGHSGDDGPPGDDLPSGIEDITDPAKLITEIENMRHRIIEIHQEMFNYNEHEVSKRWTFEEGIKRPYFHVKPLEKAQLKNWKEYLEFEIENGTHERVVVLFERCVISCALYEEFWIKYAKYMENHSIEGVRHVFSRACTIHLPKKPMVHMLWAAFEEQQGNINEARNILKTFEECVLGLAMVRLRRVSLERRHGNLEEAEHLLQDAIKNAKSNNESSFYAVKLARHLFKIQKNLPKSRKVLLEAIERDKENTKLYLNLLEMEYSGDLKQNEENILNCFDKAVHGSLPIKMRITFSQRKVEFLEDFGSDVNKLLNAYDEHQTLLKEQDSLKRKAENGSEEPEEKKAHTEDTTSSSTQMIDGDLQANQAVYNYSAWYQYNYQNPWNYGQYYPPPPT [PRPF39]	1.54	2.13	-0.157	0.0352	47.2	50.4
MQQDGLGVGTRNGSGKGRSVHPSWPWCAPRPLRYFGRDARARRAQTAAMALLAGGLSRGLGSHPAAAGRDAVVFVWLLLSTWCTAPARAIQVTVSNPYHVVILFQPVTLPCTYQMTSTPTQPIVIWKYKSFCRDRIADAFSPASVDNQLNAQLAAGNPGYNPYVECQDSVRTVRVVATKQGNAVTLGDYYQGRRITITGNADLTFDQTAWGDSGVYYCSVVSAQDLQGNNEAYAELIVLGRTSGVAELLPGFQAGPIEDWLFVVVVCLAAFLIFLLLGICWCQCCPHTCCCYVRCPCCPDKCCCPEALYAAGKAATSGVPSIYAPSTYAHLSPAKTPPPPAMIPMGPAYNGYPGGYPGDVDRSSSAGGQGSYVPLLRDTDSSVASEVRSGYRIQASQQDDSMRVLYYMEKELANFDPSRPGPPSGRVERAMSEVTSLHEDDWRSRPSRGPALTPIRDEEWGGHSPRSPRGWDQEPAREQAGGGWRARRPRARSVDALDDLTPPSTAESGSRSPTSNGGRSRAYMPPRSRSRDDLYDQDDSRDFPRSRDPHYDDFRSRERPPADPRSHHHRTRDPRDNGSRSGDLPYDGRLLEEAVRKKGSEERRRPHKEEEEEAYYPPAPPPYSETDSQASRERRLKKNLALSRESLVV	-3.76	-1.62	0.133	-0.186	53.8	54.6
MQRASRLKRELHMLATEPPPGITCWQDKDQMDDLRAQILGGANTPYEKGVFKLEVIIPERYPFEPPQIRFLTPIYHPNIDSAGRICLDVLKLPPKGAWRPSLNIATVLTSIQLLMSEPNPDDPLMADISSEFKYNKPAFLKNARQWTEKHARQKQKADEEEMLDNLPEAGDSRVHNSTQKRKASQLVGIEKKFHPDV [UBE2T]	-0.273	-0.0505	0.118	0.66	49.2	49.9
MQTPVNIPVPVLRLPRGPDGFSRGFAPDGRRAPLRPEVPEIQECPIAQESLESQEQRARAALRERYLRSLLAMVGHQVSFTLHEGVRVAAHFGATDLDVANFYVSQLQTPIGVQAEALLRCSDIISYTFKP [GEMIN7]	-0.755	-0.344	-0.0302	-0.401	53	–
MRERIWAPPLLLLLPLLLPPPLWGGPPDSPRRELELEPGPLQPFDLLYASGAAAYYSGDYERAVRDLEAALRSHRRLREIRTRCARHCAARHPLPPPPPGEGPGAELPLFRSLLGRARCYRSCETQRLGGPASRHRVSEDVRSDFQRRVPYNYLQRAYIKLNQLEKAVEAAHTFFVANPEHMEMQQNIENYRATAGVEALQLVDREAKPHMESYNAGVKHYEADDFEMAIRHFEQALREYFVEDTECRTLCEGPQRFEEYEYLGYKAGLYEAIADHYMQVLVCQHECVRELATRPGRLSPIENFLPLHYDYLQFAYYRVGEYVKALECAKAYLLCHPDDEDVLDNVDYYESLLDDSIDPASIEAREDLTMFVKRHKLESELIKSAAEGLGFSYTEPNYWIRYGGRQDENRVPSGVNVEGAEVHGFSMGKKLSPKIDRDLREGGPLLYENITFVYNSEQLNGTQRVLLDNVLSEEQCRELHSVASGIMLVGDGYRGKTSPHTPNEKFEGATVLKALKSGYEGRVPLKSARLFYDISEKARRIVESYFMLNSTLYFSYTHMVCRTALSGQQDRRNDLSHPIHADNCLLDPEANECWKEPPAYTFRDYSALLYMNDDFEGGEFIFTEMDAKTVTASIKPKCGRMISFSSGGENPHGVKAVTKGKRCAVALWFTLDPLYRELERIQADEVIAILDQEQQGKHELNINPKDEL [P3H2]	4.77	5.82	-0.0732	-0.176	53.7	53.9
MRFLAATFLLLALSTAAQAEPVQFKDCGSVDGVIKEVNVSPCPTQPCQLSKGQSYSVNVTFTSNIQSKSSKAVVHGILMGVPVPFPIPEPDGCKSGINCPIQKDKTYSYLNKLPVKSEYPSIKLVVEWQLQDDKNQSLFCWEIPVQIVSHL [NPC2]	-3.22	-2.19	0.0342	0.123	58.9	53.4
MRGAMELEPELLLQEARENVEAAQSYRRELGHRLEGLREARRQIKESASQTRDVLKQHFNDLKGTLGKLLDERLVTLLQEVDTIEQETIKPLDDCQKLIEHGVNTAEDLVREGEIAMLGGVGEENEKLWSFTKKASHIQLDSLPEVPLLVDVPCLSAQLDDSILNIVKDHIFKHGTVASRPPVQIEELIEKPGGIIVRWCKVDDDFTAQDYRLQFRKCTSNHFEDVYVGSETEFIVLHIDPNVDYQFRVCARGDGRQEWSPWSVPQIGHSTLVPHEWTAGFEGYSLSSRRNIALRNDSESSGVLYSRAPTYFCGQTLTFRVETVGQPDRRDSIGVCAEKQDGYDSLQRDQAVCISTNGAVFVNGKEMTNQLPAVTSGSTVTFDIEAVTLGTTSNNEGGHFKLRVTISSNNREVVFDWLLDQSCGSLYFGCSFFYPGWKVLVF [CRLF3]	-0.0259	-0.0234	-0.13	-0.117	50	49.7
MRGVWPPPVSALLSALGMSTYKRATLDEEDLVDSLSEGDAYPNGLQVNFHSPRSGQRCWAARTQVEKRLVVLVVLLAAGLVACLAALGIQYQTRSPSVCLSEACVSVTSSILSSMDPTVDPCHDFFSYACGGWIKANPVPDGHSRWGTFSNLWEHNQAIIKHLLENSTASVSEAERKAQVYYRACMNETRIEELRAKPLMELIERLGGWNITGPWAKDNFQDTLQVVTAHYRTSPFFSVYVSADSKNSNSNVIQVDQSGLGLPSRDYYLNKTENEKVLTGYLNYMVQLGKLLGGGDEEAIRPQMQQILDFETALANITIPQEKRRDEELIYHKVTAAELQTLAPAINWLPFLNTIFYPVEINESEPIVVYDKEYLEQISTLINTTDRCLLNNYMIWNLVRKTSSFLDQRFQDADEKFMEVMYGTKKTCLPRWKFCVSDTENNLGFALGPMFVKATFAEDSKSIATEIILEIKKAFEESLSTLKWMDEETRKSAKEKADAIYNMIGYPNFIMDPKELDKVFNDYTAVPDLYFENAMRFFNFSWRVTADQLRKAPNRDQWSMTPPMVNAYYSPTKNEIVFPAGILQAPFYTRSSPKALNFGGIGVVVGHELTHAFDDQGREYDKDGNLRPWWKNSSVEAFKRQTECMVEQYSNYSVNGEPVNGRHTLGENIADNGGLKAAYRAYQNWVKKNGAEHSLPTLGLTNNQLFFLGFAQVWCSVRTPESSHEGLITDPHSPSRFRVIGSLSNSKEFSEHFRCPPGSPMNPPHKCEVW [ECE1]	-1.05	-0.159	-0.00992	0.243	56.1	55.2
MRHLPYFCRGQVVRGFGRGSKQLGIPTANFPEQVVDNLPADISTGIYYGWASVGSGDVHKMVVSIGWNPYYKNTKKSMETHIMHTFKEDFYGEILNVAIVGYLRPEKNFDSLESLISAIQGDIEEAKKRLELPEHLKIKEDNFFQVSKSKIMNGH [RFK]	0.0986	-0.44	-0.114	0.518	52.7	54.1
MRKGVLKDPEIADLFYKDDPEELFIGLHEIGHGSFGAVYFATNAHTSEVVAIKKMSYSGKQTHEKWQDILKEVKFLRQLKHPNTIEYKGCYLKEHTAWLVMEYCLGSASDLLEVHKKPLQEVEIAAITHGALHGLAYLHSHALIHRDIKAGNILLTEPGQVKLADFGSASMASPANSFVGTPYWMAPEVILAMDEGQYDGKVDIWSLGITCIELAERKPPLFNMNAMSALYHIAQNDSPTLQSNEWTDSFRRFVDYCLQKIPQERPTSAELLRHDFVRRDRPLRVLIDLIQRTKDAVRELDNLQYRKMKKILFQETRNGPLNESQEDEEDSEHGTSLNREMDSLGSNHSIPSMSVSTGSQSSSVNSMQEVMDESSSELVMMHDDESTINSSSSVVHKKDHVFIRDEAGHGDPRPEPRPTQSVQSQALHYRNRERFATIKSASLVTRQIHEHEQENELREQMSGYKRMRRQHQKQLIALENKLKAEMDEHRLKLQKEVETHANNSSIELEKLAKKQVAIIEKEAKVAAADEKKFQQQILAQQKKDLTTFLESQKKQYKICKEKIKEEMNEDHSTPKKEKQERISKHKENLQHTQAEEEAHLLTQQRLYYDKNCRFFKRKIMIKRHEVEQQNIREELNKKRTQKEMEHAMLIRHDESTRELEYRQLHTLQKLRMDLIRLQHQTELENQLEYNKRRERELHRKHVMELRQQPKNLKAMEMQIKKQFQDTCKVQTKQYKALKNHQLEVTPKNEHKTILKTLKDEQTRKLAILAEQYEQSINEMMASQALRLDEAQEAECQALRLQLQQEMELLNAYQSKIKMQTEAQHERELQKLEQRVSLRRAHLEQKIEEELAALQKERSERIKNLLERQEREIETFDMESLRMGFGNLVTLDFPKEDYR [TAOK3]	-0.159	-0.329	-0.0814	-0.118	50.9	50.5
MRKRTEPVALEHERCAAAGSSSSGSAAAALDADCRLKQNLRLTGPAAAEPRCAADAGMKRALGRRKGVWLRLRKILFCVLGLYIAIPFLIKLCPGIQAKLIFLNFVRVPYFIDLKKPQDQGLNHTCNYYLQPEEDVTIGVWHTVPAVWWKNAQGKDQMWYEDALASSHPIILYLHGNAGTRGGDHRVELYKVLSSLGYHVVTFDYRGWGDSVGTPSERGMTYDALHVFDWIKARSGDNPVYIWGHSLGTGVATNLVRRLCERETPPDALILESPFTNIREEAKSHPFSVIYRYFPGFDWFFLDPITSSGIKFANDENVKHISCPLLILHAEDDPVVPFQLGRKLYSIAAPARSFRDFKVQFVPFHSDLGYRHKYIYKSPELPRILREFLGKSEPEHQH [ABHD12]	0.18	-0.815	0.0278	0.0996	53	54.9

From the supplement of paper PMC5998384
